Laboratory results as given in the DeepSol protein solubility set.

assay: soluble on expression in E. coli; label from the status in PepcDB or PDB records

Row | Sequence | soluble on expression in E. coli
1 | MSEAAQTLDGWYCLHDFRTIDWSAWKTLPNEEREAAISEFLALVDQWETTESEKQGSHAVYTIVGQKADILFMILRPTLDELHEIETALNKTKLADYLLPAYSYVSVVELSNYLASGSEDPYQIPEVRRRLYPILPKTNYICFYPMDKRRQGNDNWYMLSMEQRRELMRAHGMTGRKYAGKVTQIITGSVGLDDFEWGVTLFSDDALQFKKLVYEMRFDEVSARFGEFGSFFVGTRLPMENVSSFFHV | soluble
2 | MPGGVSSPVRAFKSVGGQPIVFDHVKGAHIWDVDGNQYIDYVGSWGPAIVGHAHPEVIDALHAALEKGTSFGAPCLLENILAEMVIAAVPSVEMVRFVNSGTEACMAVLRLMRAYTQREKVIKFEGCYHGHADMFLVKAGSGVATLGLPDSPGVPKATTAATLTAPYNDLEAVSRLFEQYPNDIAGVILEPVVGNAGFIPPDAGFLEGLRELTKQYGALLVFDEVMTGFRIAYGGAQEKFGVTPDLTTLGKVIGGGLPVGAYGGRAEIMKMVAPAGPVYQAGTLSGNPLAMTAGIKTLEILSRPGSYEHLDRITGKLVQGLLDAAREFGHEVCGGHISGMFGLFFTAGPVTNYEQAKQSDLKKFAAFHRGMLEQGIYLAPSQFEAGFTSLAHTEADIERTIAAARTVLSQL | soluble
3 | GTREQALGPALSFSTEGEFLKVRILDPVADSRRYNEEFKAQGLDIELVLIPASPSQVGQADGQLYSGSNTRQRIRFESVPAGCVEAATYPCVPEFTIPKDYRGTARFGINRAAAPGEQYAATGALNGRDEPLEGIQWLNRPVGEISAILRQRGFSITYRWPTGRQNPNATPPPTWYVIEPSFARQNNLVELEVSPRPMK | not soluble
4 | MNIVIAAVGGQGAVLTSKILGTLAQNLGKDVKVSEVHGMSQRGGSVVAYVKFGDKVYSPVVEKGTADIVLAFEMLEGARYVDYLKENGKLVVNTQRIDPMPVITGDMEYPADLGEKLEELNIGYIPVDALSLAKNAGTIKAVNVALIGVLAQNSNIKKEEWIKAIKDTVPEKFLELNLKAFELGYNL | not soluble
5 | MIILQGNKLERSFSGDVLFQNISLQVDERDRIALVGPNGAGKSTLLKLLVGEETPTSGEVNTKKDLTLSYLAQNSRFESDQTIYEEMLKVFEALRQDEKRLRQMEMDMATVSGQVLTRLMTDYDLLTEHFRQQGGFTYESDIKAILNGFKFDESMWQMTIAELSGGQNTRLALAKMLLEKPELLVLDEPTNHLDIETIAWLENYLANYQGALIIVSHDRYFLDKVATVTLDLTPNGLDRYSGNYSRFMALKAEKLVAEEKQFDKQQKEIAKLEDFVQKNIVRASTTKRAQARRKQLEKIERLDKPTGGRKSAHMTFHAEKPSGNVVLRVEEAAIGYGDQVLSEPINVDINKLDAIAVVGPNGIGKSTLIKSIIGQLPLLKGQLKYGANVETGYYDQTQSHLTSSNTVLEELWQDFSTTPEVDIRNRLGAFLFSGDDVKKSVAMLSGGEKARLLLAKLSMENNNFLVLDEPTNHLDIDSKEVLENALIDFDGTLLFVSHDRYFINRLATKVLEITENGSTLYLGDYDYYLEKKAELEELARLAAGETVEETKEASATDYQLQKANQKERRRLTRRYEEIEARLETIEERIGAIQEDMHASNDTAQLIAWQKEWDQLDQEQEALMEEWETIAEQIES | not soluble
6 | MAHHHHHHMSSSSSGQYSGSGGNRGSGFVHLNTPASIQYTAGKTLSLSALRQSKSRVECAVLPESMSVWRDAFQRYSKEEGYSSFAADIEDERTGNGPILPPLVPQRAGPVRRRAGRALVRTDAFFCASSSPAPLGTSASTAHTGADRPPLTDGAAAISSTATAASASSSSRLSDKGTTATSADSVADGSTGPTAKQQQEGIPIVSHHKLLGRQQFVYPDYDGVLSAGVVPQIVVTAEEEAEEAAAKAFYISPLTMTEEELAAFEELQGLWKSRARSHSFLGAQHRKAAKGAVDPSSSADVLEAGGAGLPKVRRCEGVTGGASLSARRGNEIDVPAYAEAETAVEEESKLDKELSEALRMADDLLRFA | not soluble
7 | MGSDKIHHHHHHMRGKMIDDPIDLLRQYSRKLVRELGMLQLNKLAAKEQPSYWHTLIEINKEPNITISKLSQLLLVSLPTLSRIVNSLINDELVTVNEGLDKRERFLRVTDKGKEKVNYIDEYSNTKIKRAFHYLTDEEREQVITAIGKYAQALEQSRLIRDQIRILRLSTSRALRKQIVNMIENIQVNEFHLSITPEINASILKAEEEYCYYSSCNFWYAVDEQGGIIGSIGLKKLNHTEGEVKKFFIAPKYRGLGLAQKLMLTLVRNAMKHGFKKLFLGTVAQLNAARRFYEKNGFVLVNKNSLPKEFELCPLDTHFYYCETDKLDKSLRELI | not soluble
8 | MKLIKNGKVLQNGELQQADILIDGKVIKQIAPAIEPSNGVDIIDAKGHFVSPGFVDVHVHLREPGGEYKETIETGTKAAARGGFTTVCPMPNTRPVPDSVEHFEALQKLIDDNAQVRVLPYASITTRQLGKELVDFPALVKEGAFAFTDDGVGVQTASMMYEGMIEAAKVNKAIVAHCEDNSLIYGGAMHEGKRSKELGIPGIPNICESVQIARDVLLAEAAGCHYHVCHVSTKESVRVIRDAKRAGIHVTAEVTPHHLLLTEDDIPGNNAIYKMNPPLRSTEDREALLEGLLDGTIDCIATDHAPHARDEKAQPMEKAPFGIVGSETAFPLLYTHFVKNGDWTLQQLVDYLTIKPCETFNLEYGTLKENGYADLTIIDLDSEQEIKGEDFLSKADNTPFIGYKVYGNPILTMVEGEVKFEGDK | not soluble
9 | MSRNQNHEEYQDDTRPLSIEEQRARLRQLIIMGKERGYITYSEINDALPDDMSDADQIDNIVSMISGLGIQVTEHAPDAEDILLSDNAAVTDDDAVEEAEAALSSADSEFGRTTDPVRMYMREMGQVDLLTREDEIIIAKKIENALKNMVQAISACPGSIAEILELIEKIRKDEIRVDEVVEAIIDPNEVLLNELGLGHLETTAPEKPSNDNSDENEDDEESEEDADEISAANLAELKQKVIGHFAQIEKDYKKMIGRLEKHHSRHKDYLAYRDAIANKLLEVRFATRQIDSLSSSLRGKVENIRKLEREIRDICLDRVHMERDYFIQNFLPEITNLEWIEEEIAKGRVWSDALDRFRHAILEKQTELADMEKETRISIEELKEINKNMVSSEKETAAAKQEMIQANLRLVISIAKKYTNRGLQFLDLIQEGNIGLMKAVDKFEYRRGYKFSTYATWWIRQAITRSIADQARTIRIPVHMIETINKMNRISRQHLQETGEEPDSAKLAELMQMPEDKIRKIMKIAKEPISMETPIGDDDDSHLGDFIEDANNVAPADAAMYTSLHEVTKEILESLTPREAKVLRMRFGIDMNTDHTLEEVGRQFDVTRERIRQIEAKALRKLRHPTRSDRLRSFLDSEDSKL | soluble
10 | MQQIFFKDPILGEVLFDQQTKWMYELVETEAFRRLRNIKQLGINFHFYPGGVHT | not soluble
11 | MGSDKIHHHHHHMVKRKNVAVIGGGVSGLAAAKAFDERGHRVTGFERSHDFGGVWELSRSYPDVQTQSPKDLYCYTDLPMPDAYPEWPKGPQVHAYLHSYANKHNLPRLFQLNTNILSMDRRADGQPGWTLTIEAAGRVRKEDFDFVAICTGQFSDKNILTHPGQEAFVAGGGEVIHSSEYTDSEMARGKHVVVLGGSKSATDIVVNAARSGAKSVTMVYRENVWRVPYFVGGINFKRLLYMRAQEQQFNQWGKSPLQRVIAALLKPLVWANFRGLETLLKAQLGLKKWNMVPDTPIEKEASCSLPIVTPGLFESFRDGTVKPIQGTYDRYEDGHVVLTTGDRVPCDLSVLAVGWKLGIPYLAQEYRDKLIEADGQYRVYRLAVNPDLPDMGFVGFNSSFCTILSAEMIANWLVRFADGQLAHQPSAQEMNANIEMMLNWRRKERPAAQVYGGLCSAPFHFKHFDELLADMGAGVRKRANPLAEQFSYPDARAYGRFLASTPQYQAG | not soluble
12 | YIQLEGEKFNESARVFTEYLKTKTSDEIPSLLQSYSKSLTISAHLKRDIVDKRLPLVHDLDIKDGKLSNYIVMLDMSVSTADGKQVTVQFVHGVDVYKEAKNI | not soluble
13 | MSLSEEDLEKFLIKELTLQGYERLNLSDINDLESNFKLQLQRLNNISFSPTEWESFYRQNITNLKLTFEDKTKMLQSDGFTLTLEKEDGSKKNIILIDRVNPINNHLQVISQLKNENGEFKNRYDVSILVNGLPLVHIELKRRGVNLKEAFNQIRRYQKESFLEGNALYEFVQIFIISNGTLTKYYSNTNEGHHHHHH | soluble
14 | GPGSMKRADGRESPRAVRAIHVATNVLANCHSSACVEIGKTRVLCGVRPPQHLVQEYRGTRGRVSCQVHRSLASSSNLDNSGDRDMALALEGVAEQAVVLERIPQLLVGVLIEVVHDDGALWDAATTALCVALTAGGVEVYDTFSACSAALRHDGAIIVDLTREEAAAAMASVVVCSGLSLGGVYYCCHKGACEATTMSQLVQAATKGLQVRKVPLLEQIRNQLV | soluble
15 | MSKSYNQRQRKKLHLAEFQELGFLVNFQFAEGTAIETVDETVDRFINEVIQPNGLAYEGSGYLHWEGLVCLEKIGKCDESHRETVKKWLETNGLQQIEVSELFDIWW | not soluble
16 | KETKTTVHKFGLEPPSELIQKQLRANLDDDIWEVIRSRKIDGEHVILDKDYFFRKHVPHLTKEICENSIYEYIEGELGLSISYAQKEIVAEPCTDEDRELLDLRGYDHMVVVRNYVFLEDTSLFQYTESRHRL | not soluble
17 | DNGLHYSVGFNLSDTRAEITKYDNPTKSLSSPYYEGQIVGDIWGYESSLFQSADEIASAPDQSKLDGGISKVPGDIRFMDIDGNGVVDYGENTVDKPGDMKIIGNNKARYRYGFNISADWKGFDLGIFFQGVGKRDLMLPYTFKWQYGSMWQVSTAVGNDYWREDNAGGWLPVARFNGSQALGQNQTRYLLDASYLRLKSLSFGYTLPVSLTKQWGIQKCRVYFTGENLLTFKHTPEGFDPELDDPYKYPQQKSLALGLNVVF | not soluble
18 | MGSDKIHHHHHHMPESAEAQVKEALLALLKDRDIQHITMKEIAEKAKVSRGSLYLYYEDKFSIIEDVIEDMKEGLGKALFDAFSHMDTLHLNKKRQTVHPTLSFVHEHRSFFSVMMNRGHFHRFFKDVFQQDVLLAPIHVNLTPIERDIYGHYRALYTYAIILYWLNEDAAASPEAISQKVWELVSQKRFYWLFGKAVPGEREKEKQIDRRVVRTREALQKAFLDVLAEKQDYAGITISDITRKSNIRRATFYDHYANKEELLQTMIQRSCAEIIDHLTIASSPNEFSLKEAEKALAILLSALSNMPIVHFLNREWGVPHVIPDMFKALESFYLHQQTDIHAEKKLYAHYVSAMIIGLLLYRLDEGKAHPPEVLAREFLQFLDVKKYKVVLL | not soluble
19 | SGPLDEYAYSWANHLLANPVNCATLEITLGPAEFLLRSDAQLAIAGGDLNATLDGRPIANWSRFYAKQGQTLRFGLPRNGLRAYLAVQGGFTVSPQLGSVSTHVRQGLGGLTSQGLALQTGDDLVFSAQQIAQKPVQMTFRFRPDYNLPLRLRVIESYQYQAFSPSAMESFYRSEFIVTPNSDRMGYRLQGETISPPDQAILSEGIALGAIQVPPNGQPIILLNDRQTIGGYPKLGCVARIDLPRLAQAKPGHSVRFVAGDLAGLQAVWCQWARFFGY | not soluble
20 | MRGEKRTFEMLTNEVEYQHYRFSFANNPATAAGIFQLAEIELTVVADAPLVDFASNISRAEIGENVQFWDRSLANPTGWQWTFEDGEPATSTNRNPAVTFTSLGAKSVTLVASNDKGSNEKVQEQVVHIWDSQNPWAGYVKPTVTLVAHKPEHEGQIAFSRVMPDIEAVIHDISLQIVKVLYKDVAEAPLFKTVTFETDEYDFPAAKSGTDEDMILMMDVAHLANKAAEGDDALRDEVIGMLWHELTHGYNNSPNSGEYATGDEYHSYLESLANYMRIKAGFHESRRVGIKWVDNWNVDAYEQTSFFLEWVANSHRSVDFIYLFNKAAGDLKEWSFEAAFKSIFGEDKGVSIFWQEYHDAQGIEPPYPTPVDGYRNFAVDEGVSISTNATTVIIPDWDAYEGEDKLIDNNVTKKFNAFIEGTWWLEEHASHLFPINDITNVEVTFELPDAIVLHKYSVTTGNDNPQRDPTLWTISGSVDGEVWTQLDSDNYPSDPERLITFHYDIDDAVTAYKYYQFVFENTQPAGDSIGGDNGRLVQIGEIALLTEELEHHHHHH | not soluble
